As a reminder, the Kd is the equilibrium constant for the complex coming apart. The low end stands for higher affinity, the high end for lower affinity. The koff is the rate constant with which the complex falls apart. As a reminder, the kon is a measure of how fast the partners come together. Usually EC50 stands for the concentration at which the effect is half-maximal. Low values mean higher potency in that assay, high ones lower potency in that assay.

The values that follow come from article PMC6352406 (Annals of the Rheumatic Diseases, 2018).

Experiment [1] deals with Human FcγRIIA 131R (Homo sapiens, FCGR2A 131R allele) (UniProt P12318). Description: SPR.
Experiment [2] concerns the target Human FcγRIIA 131H (Homo sapiens, FCGR2A 131H allele) (UniProt P12318). Description: SPR. A general note: In SPR one partner is held on a chip, and binding of the other changes the refractive index at the surface.
In experiment [3] the target is T1, FcγRIIA on human neutrophils (Homo sapiens, endogenous on …, UniProt P12318). The experiment can be described thus: flow cytometry on cells. On the technique in general: In flow cytometry, cells or beads pass a laser one at a time.
Experiment [4] addresses T1, FcγRIIA on human neutrophils. The experiment can be described thus: flow cytometry on cells. The source holds these as a separate data set.

Where two headings read alike, the source gives them in different places.

Human FcγRIIA 131H (Homo sapiens, FCGR2A 131H allele), sequence (P12318 34-317): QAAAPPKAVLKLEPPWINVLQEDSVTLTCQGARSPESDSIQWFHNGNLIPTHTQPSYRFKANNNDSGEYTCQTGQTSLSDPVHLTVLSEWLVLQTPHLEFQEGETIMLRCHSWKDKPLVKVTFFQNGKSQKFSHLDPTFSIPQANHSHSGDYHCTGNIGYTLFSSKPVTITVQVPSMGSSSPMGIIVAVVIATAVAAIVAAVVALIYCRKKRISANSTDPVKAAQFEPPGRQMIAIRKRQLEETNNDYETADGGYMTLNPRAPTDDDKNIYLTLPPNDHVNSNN
Human FcγRIIA 131R (Homo sapiens, FCGR2A 131R allele), sequence (P12318 whole entry, looked up, tested part not stated): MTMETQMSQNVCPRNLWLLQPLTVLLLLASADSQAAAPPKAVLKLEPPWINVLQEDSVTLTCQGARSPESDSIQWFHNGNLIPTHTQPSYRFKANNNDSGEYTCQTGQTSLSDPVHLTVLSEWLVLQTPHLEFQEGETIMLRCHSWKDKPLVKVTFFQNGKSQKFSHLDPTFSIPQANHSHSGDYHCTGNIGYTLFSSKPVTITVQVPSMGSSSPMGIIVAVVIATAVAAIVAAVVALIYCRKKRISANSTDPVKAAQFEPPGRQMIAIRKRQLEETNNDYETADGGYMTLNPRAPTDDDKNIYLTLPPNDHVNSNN
T1 sequence (P12318 34-317): as the sequence (P12318 34-317) above

In experiment [1], IV.3 Fab came in with a dissociation constant Kd of 0.22 nM, a koff of 0.00129 s⁻¹ and a kon of 5.95e+06 M⁻¹ s⁻¹. In experiment [2], this molecule returned a Kd of 0.22 nM, a koff of 0.000681 s⁻¹ and a kon of 3.03e+06 M⁻¹ s⁻¹.

Consider VIB9600 Fab, for which, in experiment [1], the Kd worked out at 0.15 nM, the koff worked out at 0.000735 s⁻¹ and the kon amounted to 4.98e+06 M⁻¹ s⁻¹. In experiment [2], this molecule showed a Kd of 0.13 nM and a koff of 0.000337 s⁻¹.

B1: VIB9600, humanised effector-null anti-FcγRIIA antibody (antibody, V domains shown)
VH: QVQLVQSGAEVKKPGASVKVSCKASGYTFTNYGMNWVRQAPGQRLEWMGWLNTYTGESWYPDDFKGRVTITRDTSASTAYMELSSLRSEDTAVYYCARGDYGYDDPLDYWGQGTLVTVSS
VL: DIVMTQSPLSLPVTPGEPASISCRSSKSLLHTNQNTYLHWFLQKPGQSPQLLIYRMSVLASGVPDRFSGSGSGTDFTLKISRVEAEDVGVYYCMQHLEYPLTFGQGTKLEIK
For the molecule B1, the results for the 50% effective concentration (EC50) in experiment [3] and in experiment [4] were 3.35 nM and 0.03 nM, respectively.
